Starred links: 1 amine or outer side, 2 acyl side, 3 side chain; linkers in the order of their positions; H or OH if unused. Positions of bridges follow the written chain, without caps; N, C: chain ends. Non-standard residues stand in square brackets, D forms with d. Groups on a side chain read outwards from the residue. No end group written: not given here. *: point of attachment. DOTA = O=C(O)CN1CCN(CC(=O)O)CCN(CC(=O)*)CCN(CC(=O)O)CC1; mXylylene = c1cc(C[*:1])cc(C[*:2])c1; tBuAla = CC(C)(C)C[C@H](N)C(=O)O; Ac6c = NC1(C(=O)O)CCCCC1; 4Amc = not defined here; Apr = not defined here; AEEA = NCCOCCOCC(=O)O
B1: 3BP-3734 (peptide)
peptide: Ac-VRCE[dP]DWLTWE([Apr-AEEA-DOTA])C-NH2
modifications: linker 3-12 via 3MeBn; reading uncertain
notes: also called Ac-Val-Arg-[Cys(3MeBn)-Glu-pro-Asp-Trp-Leu-Thr-Trp-Glu(NH-Apr-O2Oc-DOTA′)-Cys]-NH2
B2: 3BP-3784 (peptide)
peptide: VYCE[dP]DWLTWSC-NH2
modifications: linker 3-12 via 3MeBn; not fully specified (N-terminus); also: europium complexed by DOTA
notes: also called EuDOTA-APAc-Val-Tyr-[Cys(3MeBn)-Glu-pro-Asp-Trp-Leu-Thr-Trp-Ser-Cys]-NH2
B3: 3BP-3735 (peptide)
peptide: Ac-SRCE[dP]DWLTWE([Apr-AEEA-DOTA])C-NH2
modifications: linker 3-12 via 3MeBn; reading uncertain
notes: also called Ac-Ser-Arg-[Cys(3MeBn)-Glu-pro-Asp-Trp-Leu-Thr-Trp-Glu(NH-Apr-O2Oc-DOTA′)-Cys]-NH2
B4: 3BP-3845 (peptide)
peptide: Ac-VRCE[dP]DWLTWEC-NH2
modifications: linker 3-12 via mXylylene; not fully specified (residue 11); also: indium complexed by DOTA
notes: also called Ac-Val-Arg-[Cys(3MeBn)-Glu-pro-Asp-Trp-Leu-Thr-Trp-Glu(NH-Apr-O2Oc-InDOTA′)-Cys]-NH2
B5: 3BP-3873 (peptide)
peptide: Ac-SYCE[dP]DWLTWE([Apr-DOTA])C-NH2
modifications: linker 3-12 via mXylylene; reading uncertain
notes: also called Ac-Ser-Tyr-[Cys(3MeBn)-Glu-pro-Asp-Trp-Leu-Thr-Trp-Glu(NH-Apr-DOTA′)-Cys]-NH2
B6: 3BP-3844 (peptide)
peptide: Ac-VFCE[dP]DWLTWEC-NH2
modifications: linker 3-12 via mXylylene; not fully specified (residue 11); also: indium complexed by DOTA
notes: also called Ac-Val-Phe-[Cys(3MeBn)-Glu-pro-Asp-Trp-Leu-Thr-Trp-Glu(NH-Apr-O2Oc-InDOTA′)-Cys]-NH2
B7: 3BP-3843 (peptide)
peptide: Ac-VYCE[dP]DWLTWEC-NH2
modifications: linker 3-12 via mXylylene; not fully specified (residue 11); also: indium complexed by DOTA
notes: also called Ac-Val-Tyr-[Cys(3MeBn)-Glu-pro-Asp-Trp-Leu-Thr-Trp-Glu(NH-Apr-O2Oc-InDOTA′)-Cys]-NH2
B8: 3BP-3491 (peptide)
peptide: Ac-VYCE[dP]DW[tBuAla]TWSC-NH2
modifications: linker 3-12 via mXylylene
SMILES: CC(=O)N[C@H](C(=O)N[C@@H](Cc1ccc(O)cc1)C(=O)N[C@H]1CSCc2cccc(c2)CSC[C@@H](C(N)=O)NC(=O)[C@H](CO)NC(=O)[C@H](Cc2c[nH]c3ccccc23)NC(=O)[C@H]([C@@H](C)O)NC(=O)[C@H](CC(C)(C)C)NC(=O)[C@H](Cc2c[nH]c3ccccc23)NC(=O)[C@H](CC(=O)O)NC(=O)[C@H]2CCCN2C(=O)[C@H](CCC(=O)O)NC1=O)C(C)C
notes: also called Ac-Val-Tyr-[Cys(3MeBn)-Glu-pro-Asp-Trp-Npg-Thr-Trp-Ser-Cys]-NH2
B9: 3BP-3503 (peptide)
peptide: Ac-VYCE[dP]DW[Ac6c]TWAC-NH2
modifications: linker 3-12 via mXylylene
SMILES: CC(=O)N[C@H](C(=O)N[C@@H](Cc1ccc(O)cc1)C(=O)N[C@H]1CSCc2cccc(c2)CSC[C@@H](C(N)=O)NC(=O)[C@H](C)NC(=O)[C@H](Cc2c[nH]c3ccccc23)NC(=O)[C@H]([C@@H](C)O)NC(=O)C2(CCCCC2)NC(=O)[C@H](Cc2c[nH]c3ccccc23)NC(=O)[C@H](CC(=O)O)NC(=O)[C@H]2CCCN2C(=O)[C@H](CCC(=O)O)NC1=O)C(C)C
notes: also called Ac-Val-Tyr-[Cys(3MeBn)-Glu-pro-Asp-Trp-Egz-Thr-Trp-Ala-Cys]-NH2
B10: 3BP-3431 (peptide)
peptide: {DOTA-4Amc}-VYCE[dP]DW[tBuAla]TWAC-NH2
modifications: linker 3-12 via mXylylene; reading uncertain
notes: also called DOTA-4Amc-Val-Tyr-[Cys(3MeBn)-Glu-pro-Asp-Trp-Npg-Thr-Trp-Ala-Cys]-NH2
B11: 3BP-3490 (peptide)
peptide: Ac-VYCE[dP]DW[tBuAla]TWAC-NH2
modifications: linker 3-12 via mXylylene
SMILES: CC(=O)N[C@H](C(=O)N[C@@H](Cc1ccc(O)cc1)C(=O)N[C@H]1CSCc2cccc(c2)CSC[C@@H](C(N)=O)NC(=O)[C@H](C)NC(=O)[C@H](Cc2c[nH]c3ccccc23)NC(=O)[C@H]([C@@H](C)O)NC(=O)[C@H](CC(C)(C)C)NC(=O)[C@H](Cc2c[nH]c3ccccc23)NC(=O)[C@H](CC(=O)O)NC(=O)[C@H]2CCCN2C(=O)[C@H](CCC(=O)O)NC1=O)C(C)C
notes: also called Ac-Val-Tyr-[Cys(3MeBn)-Glu-pro-Asp-Trp-Npg-Thr-Trp-Ala-Cys]-NH2

Each binder was assayed against human carbonic anhydrase 9 (CAIX) (human, UniProt Q16790 38-459) (assay: FACS competition on HT-29 cells against tracer 3BP-2776; pIC50 category A = pIC50 >8.0).
Procedure: CAIX-expressing human HT-29 colorectal cancer cells (DSMZ, RRID: CVCL_0320) were cultured in McCoys's 5A modified medium (Biochrom, #F1015) including 10% fetal calf serum (FCS), 2 mM L-glutamine, 100 U/ml penicillin and 100 μg/mL streptomycin. Cells were detached with Accutase (Biolegend, #423201) and washed in FACS buffer (PBS including 1% FCS). Cells were diluted in FACS buffer to a final concentration of 500.000 cells per ml. 200 μL of the cell suspension were transferred to a u-shaped non-binding 96-well plate (Greiner) and cells were washed in ice-cold FACS buffer.
When biotinylated compounds were used an additional incubation step with 1 μg/mL APC-Streptavidin (Miltenyi; #130-106-791) in 50 μL FACS buffer for 30 minutes on ice was performed.
Cells were washed twice with ice-cold FACS buffer and analyzed in an Attune NxT flow cytometer (Thermo Fisher). Median fluorescence intensities (MFI) of the APC/Cy5-channel were calculated by Attune NxT software.

pIC50, > 8 pic50:
B1
B2
B3
B4
B5
B6
B7
B8
B9
B10
B11
